Paper PMC10338342

Tests used:
[1] = target: nucleosome core particle: human histone octamer (H2A, H2B, H3.1, H4) wrapped by DNA (human) (UniProt P04908); test: mass photometry; CLOCK-BMAL1 with NCP SHL+5.8 (single E-box), 10 and 60 nM (1:6), 20 mM Tris-HCl pH 7.5, 100 mM KCl, 0.5 mM TCEP
[2] = target: nucleosome core particle: human histone octamer (H2A, H2B, H3.1, H4) wrapped by DNA (human) (UniProt P04908); test: mass photometry; CLOCK-BMAL1 with NCP SHL+5.8-tandem (2 E-boxes with 7-bp spacing in a 601 sequence), 10 and 60 nM (1:6), 20 mM Tris-HCl pH 7.5, 100 mM KCl, 0.5 mM TCEP
[3] = target: nucleosome core particle: human histone octamer (H2A, H2B, H3.1, H4) wrapped by DNA (human) (UniProt P04908); test: mass photometry; CLOCK-BMAL1 with NCP SHL−6.2, 10 and 60 nM (1:6), 20 mM Tris-HCl pH 7.5, 100 mM KCl, 0.5 mM TCEP, 30 min room temperature
[4] = target: nucleosome core particle with H2B(T122C–biotin): H2A–H2B(T122C–biotin)–H3.1–H4 octamer wrapped by DNA (human) (UniProt P04908); test: FRET or BRET; LANCE TR-FRET forward titration: increasing His–MYC-MAX added to H2B(T122C)-biotinylated NCP SHL+5.1 with Eu-streptavidin, in the presence or absence of OCT4
[5] = test system: MYC bHLH-LZ;MAX bHLH-LZ (human;human), P01106-1+P61244; test: TR-FRET; conditions: about threefold vs without, EMSA/SeEN-seq: 20 mM Tris-HCl pH 7.5, 75 mM NaCl, 10 mM KCl, 1 mM MgCl2, 0.1 mg/ml BSA, 1 mM DTT, room temp ~1 h, TR-FRET: 20 mM Tris-HCl pH 7.5, 75 or 125 mM …
Sequence of MYC bHLH-LZ;MAX bHLH-LZ (human;human), P01106-1+P61244 (P01106 366-452, chain 1 of 2): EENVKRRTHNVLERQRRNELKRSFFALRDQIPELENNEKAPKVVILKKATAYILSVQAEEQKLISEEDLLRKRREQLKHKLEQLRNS
Sequence of MYC bHLH-LZ;MAX bHLH-LZ (human;human), P01106-1+P61244 (P61244 22-102, chain 2 of 2): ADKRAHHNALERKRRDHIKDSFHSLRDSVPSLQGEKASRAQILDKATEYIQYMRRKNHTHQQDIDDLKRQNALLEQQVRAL

[6] = target: CLOCK bHLH PAS-AB;BMAL1 bHLH PAS-AB WT (mouse;mouse) (UniProt O08785+Q9WTL8); test: mass photometry; conditions: EMSA/SeEN-seq: 20 mM Tris-HCl pH 7.5, 75 mM NaCl, 10 mM KCl, 1 mM MgCl2, 0.1 mg/ml BSA, 1 mM DTT, room temp ~1 h, TR-FRET: 20 mM Tris-HCl pH 7.5, 75 or 125 mM …
[7] = test system: MYC bHLH-LZ;MAX bHLH-LZ (human;human), P01106-1+P61244; test: SeEN-seq (EMSA + NGS); conditions: 62.5 nM TF; EMSA/SeEN-seq: 20 mM Tris-HCl pH 7.5, 75 mM NaCl, 10 mM KCl, 1 mM MgCl2, 0.1 mg/ml BSA, 1 mM DTT, room temp ~1 h; TR-FRET: 20 mM Tris-HCl pH 7.5, 75 or 125 mM …
[8] = target: nucleosome core particle: human histone octamer (H2A, H2B, H3.1, H4) wrapped by DNA, P04908;P06899;P68431;P62805; test: smTIRF colocalization single-molecule imaging; conditions: substrate NCP

Substance: CLOCK-BMAL1 bHLH PAS-AB heterodimer (from UniProt O08785 26-395; Q9WTL8 62-441) (complex)
- N (minority species) [1]: 2
- percent bound (total amount of CLOCK-BMAL1 bound, single E-box) [1]: 19%
- percent bound (total amount of CLOCK-BMAL1 bound, tandem E-boxes) [2]: 51%
- stoichiometry N [3]: 1

Substance: MYC-MAX bHLH LZ heterodimer (from UniProt P61244 22-102) (complex)
- fold strengthening of the binding isotherm in the presence of OCT4 [4]: 3 fold

Substance: NCP SHL+5.1 for TR-FRET
- binding signal (fold tighter with OCT4) [5]: 3

Substance: NCP SHL+5.8 (W601)
- binding signal ([6]; 20 nM NCP, single E-box): 19 % bound

Substance: NCP SHL+5.8-tandem
- binding signal ([6]; tandem E-box): 51 % bound

Substance: SeEN-seq NCP, E-box at SHL+5.8
- binding signal (log2 enrichment) [7]: 3.5

Substance: SeEN-seq NCP, E-box at SHL-6.2
- binding signal (log2 enrichment) [7]: 2.2

Substance: wild-type MYC-MAX–Spy, labelled with JF549–SpyCatcher (from UniProt P61244) MAX:Y73A; MAX:R76A
- other: dwell time τoff,1 [8]: 0.86 s
- other: dwell time τoff,2 [8]: 22 s

Substance: wild-type MYC-MAX–Spy, labelled with JF549–SpyCatcher (from UniProt P61244) MYC:S405Y; MYC:A408R
- other: dwell time τoff,1 [8]: 0.6 s
